# Reference: paper PMC8724787 (2021)
# What was measured:
# [1] = molecular target: ZIKV-H/PF/2013 sE protein (aa 1-404) (Zika virus (strain H/PF/2013)); assay: BLI
# [2] = molecular target: DENV4 strain 1-0093 envelope (E) protein on virions (Dengue virus 4 (strain 1-0093)); assay: ELISA; apparent
# [3] = molecular target: ZIKV strain PF13 envelope (E) protein on virions (Zika virus (strain PF13), UniProt A0A024B7W1); assay: ELISA; apparent
# [4] = molecular target: DENV3 strain H87 envelope (E) protein on virions (Dengue virus 3 (strain H87)); assay: ELISA; apparent
# [5] = molecular target: DENV2 strain 16681 envelope (E) protein on virions (Dengue virus 2 (strain 16681)); assay: ELISA; apparent
binder,measurement,setting,value
"K^L66A C10 mAb mutant (IgG1) (antibody, V domains shown) VH: EVQLVESGAEVKKPGASVKVSCKASGYTFTSYAMHWVRQAPGQRLEWMGWINAGNGNTKYSQKFQDRVTITRDTSASTAYMELSSLRSEDTAIYYCARDKVDDYGDYWFPTLWYFDYWGQGTLVTVSS VL: QSALTQPASVSGSPGQSITISCTGTSSDVGGFNYVSWFQQHPGKAPKLMLYDVTSRPSGVSSRFSGSASGNTASLTISGLQAEDEADYYCSSHTSRGTWVFGGGTKLTVL",Kd,[1],40.3 nM
"C10 intact bivalent IgG1 (human monoclonal antibody EDE1 C10) (antibody, V domains shown) VH: EVQLVESGAEVKKPGASVKVSCKASGYTFTSYAMHWVRQAPGQRLEWMGWINAGNGNTKYSQKFQDRVTITRDTSASTAYMELSSLRSEDTAIYYCARDKVDDYGDYWFPTLWYFDYWGQGTLVTVSS VL: QSALTQPASVSGSPGQSITISCTGTSSDVGGFNYVSWFQQHPGKAPKLMLYDVTSRPSGVSSRFSGSKSGNTASLTISGLQAEDEADYYCSSHTSRGTWVFGGGTKLTVL",Kd,[1],16.2 nM
same,Kd,[2],1.42 nM
same,Kd,[3],0.41 nM
same,Kd,[4],2.03 nM
"C10 monovalent antigen binding fragment (Fab) (Fab, V domains shown) VH: EVQLVESGAEVKKPGASVKVSCKASGYTFTSYAMHWVRQAPGQRLEWMGWINAGNGNTKYSQKFQDRVTITRDTSASTAYMELSSLRSEDTAIYYCARDKVDDYGDYWFPTLWYFDYWGQGTLVTVSS VL: QSALTQPASVSGSPGQSITISCTGTSSDVGGFNYVSWFQQHPGKAPKLMLYDVTSRPSGVSSRFSGSKSGNTASLTISGLQAEDEADYYCSSHTSRGTWVFGGGTKLTVL",Kd,[2],29.2 nM
same,Kd,[3],1.16 nM
same,Kd,[4],165 nM
same,Kd,[5],38.8 nM
